Tests used:
[1] = biological target: FlaA (TDE1712), flagellar filament sheath protein of Treponema denticola (Treponema denticola ATCC 35405); test: isolation of native flagellar filaments, 2D gel electrophoresis with densitometry and immunoblot
[2] = biological target: FlaA (TDE1712), flagellar filament sheath protein of Treponema denticola (Treponema denticola ATCC 35405); test: isolation of native flagellar filaments, 2D gel electrophoresis with densitometry; periplasmic flagella isolated from the ΔflaB3 mutant; 2D gels, Coomassie staining, densitometry; ratios relative to FlaA
[3] = biological target: FlaA (TDE1712), flagellar filament sheath protein of Treponema denticola (Treponema denticola ATCC 35405); test: isolation of native flagellar filaments, 2D gel electrophoresis with densitometry; periplasmic flagella isolated from the ΔflaB2 mutant; 2D gels, Coomassie staining, densitometry; ratios relative to FlaA
[4] = biological target: FlaA (TDE1712), flagellar filament sheath protein of Treponema denticola (Treponema denticola ATCC 35405); test: isolation of native flagellar filaments, 2D gel electrophoresis with densitometry; periplasmic flagella isolated from the ΔflaB1 mutant; 2D gels, Coomassie staining, densitometry; ratios relative to FlaA

| Substance | stoichiometry relative to FlaA in isolated filaments (ratio relative to FlaA) [1] | stoichiometry relative to FlaA in isolated filaments (ratio relative to FlaA) [2] | stoichiometry relative to FlaA in isolated filaments (ratio relative to FlaA) [3] | stoichiometry relative to FlaA in isolated filaments (ratio relative to FlaA) [4] |
| --- | --- | --- | --- | --- |
| FlaB1 (TDE1477), flagellar filament core flagellin of Treponema denticola (from UniProt Q73MN1 1-286) (natural protein) | 0.71 | 1.12 | 1.04 | – |
| FlaB2 (TDE1004), flagellar filament core flagellin of Treponema denticola (from UniProt Q73NZ6 1-286) (natural protein) | 0.61 | 0.36 | – | 0.5 |
| FlaB3 (TDE1475), flagellar filament core flagellin of Treponema denticola (from UniProt Q73MN3 1-285) (natural protein) | 0.18 | – | 0.38 | 0.94 |

Reference: paper PMC9481697
